Results taken from the supplement of paper PMC11908140.

B1: library; numbered along this chain (parent)
chain: MRKPRAAVGSGHRKQAASQEGRQKHAKNNSQAKPSACDGLARQPEEVVLQASVSSYHLFRDVAEVTAFRGSLLSWYDQEKRDLPWRRRAEDEMDLDRRAYAVWVSEVMLQQTQVATVINYYTGWMQKWPTLQDLASASLEEVNQLWAGLGYYSRGRRLQEGARKVVEELGGHMPRTAETLQQLLPGVGRYTAGAIASIAFGQATGVVDGNVARVLCRVRAIGADPSSTLVSQQLWGLAQQLVDPARPGDFNQAAMELGATVCTPQRPLCSQCPVESLCRARQRVEQEQLLASGSLSGSPDVEECAPNTGQCHLCLPPSEPWDQTLGVVNFPRKASRKPPREESSATCVLEQPGALGAQILLVQRPNSGLLAGLWEFPSVTWEPSEQLQRKALLQELQRWAGPLPATHLRHLGEVVHTFSHIKLTYQVYGLALEGQTPVTTVPPGARWLTQEEFHTAAVSTAMKKVFRVYQGQQPGTCMGSKRSQVSSPCSRKKPRMGQQVLDNFFRSHISTDAHSLNSAAQ

Variants of: B1
Assay: 8OG:A repair function score (normalized; synonymous = 0, nonsense = -1) (normalized log-likelihood score); higher = more repair activity (WT-like)
Settings: with 8OG:A DNA repair reporter (GFP) in HEK-293 MUTYH KO cells
Procedure: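 Saturation mutagenesis (NNN codon scan) of the MUTYH cDNA (521-aa nuclear isoform NM_001048174.1 / NP_001041639), stably expressed under doxycycline induction in HEK-293 MUTYH knockout cells. Cells were co-transfected with an 8OG:A-bearing GFP repair reporter plus mCherry and sorted 72 h later into GFP+ and GFP− bins, three replicates per tile. The Rosace log2 enrichment (GFP+ vs GFP−) was converted per tile to a normalized function score with synonymous variants centered at 0 and nonsense variants (codons 1-471) at -1; low-abundance variants were removed.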

8OG:A repair function score: each site, then its substitutions
T66: H -0.091 | N -0.0376 | A -0.0148 | C 0.00591 | Q 0.00332 | Y -0.00942 | I -0.0285 | D 0.00573 | E 0.00467 | S -0.0428 | K -0.0706 | M -0.0066 | G -0.0192 | V 0.00408 | P -0.115 | F -0.00932 | R -0.0902 | L -0.00253
S52: C -0.0302 | N -0.0834 | T 0.00677 | W -0.00265 | G -0.00057 | Y 0.0053 | F -0.0245 | D -0.0111 | P -0.0118 | R 0.00314 | E -0.00064 | V -0.00119 | Q -0.0208 | K 0.0066 | H -0.0255 | M -0.00303 | I -0.0155 | L 0.00142
V62: K 0.00655 | R -0.00306 | M -0.00891 | T 0.00595 | E -0.456 | S 0.00493 | W -0.0135 | Y 0.00694 | Q -0.0156 | G 0.0052 | I -0.00659 | L 0.00583 | D -0.0781 | F 0.00406 | H -0.0066 | N 0.00416 | A -0.00201 | C -0.00556 | P 0.00101
E64: L -0.0405 | V -0.0293 | A -0.0113 | F -1.97 | H -0.0871 | W -0.219 | S -0.158 | P -0.284 | C -0.0897 | Y -0.98 | T 0.00694 | Q 0.00334 | G -0.0592 | R -0.103 | I -0.193 | D -0.0139 | K -0.115 | N -0.0585
V53: E 0.00193 | W -0.276 | L -0.024 | K -0.0093 | D 0.00694 | N -0.0892 | H 0.00594 | M -0.112 | G -0.0541 | P -0.254 | A 0.00104 | T -0.0126 | R 0.00694 | Q -0.0248 | I -0.0188 | F -0.00754 | C 0.000965 | Y -0.0142 | S 0.00307
A67: S 0.00133 | T 0.00198 | Q -0.481 | C 0.00689 | M -0.118 | F -0.0807 | Y 0.00691 | W -0.0846 | P -0.143 | I -0.0242 | G -0.0739 | H -0.0348 | L -0.0838 | E -0.0141 | D 0.00532 | V -0.000602 | R 0.00599 | N -0.0206 | K -0.0225
S54: H 0.0058 | M -0.0179 | L 0.00619 | T -0.0217 | K -0.0583 | G 0.00441 | N -0.00348 | I -0.00479 | V -0.0294 | C 0.00525 | Q 0.00389 | R -0.0174 | W -0.423 | D -0.029 | F -0.0664 | Y 0.00243 | P 0.00682 | E 0.00656 | A 0.00533
V65: L -0.0109 | M -0.139 | Q -0.0644 | P -0.196 | N -0.208 | H -0.0853 | C -0.00739 | I -0.000598 | G -0.206 | Y -0.0274 | W -0.114 | T -0.00404 | S -0.0751 | E -0.196 | F -0.0274 | A -0.138 | K 0.00609 | D -0.226 | R -0.0229
R60: W -0.564 | E -0.127 | I -0.0738 | C -0.081 | G -0.0378 | A -0.0135 | S 0.00106 | F -0.0889 | D -0.0771 | K -0.0179 | N 0.00565 | H -0.196 | P -0.0757 | M 0.00468 | T 0.00688 | Y -0.014 | L 0.00645 | Q -0.692
